# Test results as given in patent US7960364.
# Biological target: HIV-1 envelope glycoprotein gp120 (UniProt P04578)
substance,measurement,value
trypsin,saturability of trypsin-catalyzed gp120 cleavage with gp120 concentration,nonsaturable at concentrations up to 1 µM
